Experimental data from patent publication US12104178B2, “DHFR tunable protein regulation” (Obsidian Therapeutics, Inc., priority 2017, dated 2024).

Experiments:
[1] = test system: HCT-116 cells; test: DD regulated luciferase, western blot and luciferase activity; assay type: cell-based, human; settings: 1 μM Shield-1 or 10 μM Trimethoprim, 24 h
From the text: DD regulated luciferase can be used to track cells in vivo e.g. T cells. Firefly luciferase or Renilla luciferase may be utilized as the payload. HCT-116 cells were stably transduced with the constitutive (OT-RLuc-001) or DD regulated constructs (OT-RLuc-002, OT-RLuc-003, OT-RLuc-004, OT-RLuc-005 and OT-RLuc-006). […] Blots were also probed with anti-GAPDH antibody to ensure uniform protein loading in all samples. […] (FIG. 59A).
Ligand dependent activity of Renilla and firefly luciferase constructs was measured using coelentrazine and luciferin substrates respectively. […] Luciferase activity was measured as luminescence reading using a luminometer and the values were compared to control samples consisting of lysis buffer and substrate.

[2] = test system: HCT116 cells; test: Combination mutation analysis, TMP dose response MFI; assay type: cell-based, human
From the text: Mutations identified by random mutagenesis were combined with mutations identified by site directed mutagenesis.

Molecule | Luciferase stabilization by western blot (FIG. 59A) [1] | MFI ([2]; DMSO, 48 h) | Stabilization ratio ([2]; TMP dose (log) −4) | MFI ([2]; TMP dose (log) −4, 48 h) | Stabilization ratio ([2]; TMP dose (log) −4.48) | MFI ([2]; TMP dose (log) −4.48, 48 h) | Stabilization ratio ([2]; TMP dose (log) −4.95) | MFI ([2]; TMP dose (log) −4.95, 48 h) | Stabilization ratio ([2]; TMP dose (log) −5.43) | MFI ([2]; TMP dose (log) −5.43, 48 h) | Stabilization ratio ([2]; TMP dose (log) −5.91) | MFI ([2]; TMP dose (log) −5.91, 48 h) | Stabilization ratio ([2]; TMP dose (log) −6.39) | MFI ([2]; TMP dose (log) −6.39, 48 h) | Stabilization ratio ([2]; TMP dose (log) −6.86) | MFI ([2]; TMP dose (log) −6.86, 48 h) | Luciferase activity (FIG. 59B) [1]
OT-RLuc-006: DD regulated Renilla luciferase (protein) MTSKVYDPEQRKRMITGPQWWARCKQMNVLDSFINYYDSEKHAENAVIFLHGNAASSYLWRHVVPHIEPVARCIIPDLIGMGKSGKSGNGSYRLLDHYKYLTAWFELLNLPKKIIFVGHDWGACLAFHYSYEHQDKIKAIVHAESVVDVIESWDEWPDIEEDIALIKSEEGEKMVLENNFFVETMLPSKIMRKLEPEEFAAYLEPFKEKGEVRRPTLSWPREIPLVKGGKPDVVQIVRNYNAYLRASDDLPKMFIESDPGFFSNAIVEGAKKFPNTEFVKVKGLHFSQEDAPDEMGKYIKSFVERVLKNEQSGISLIAALAVDYVIGMENAMPWNLPADLAWFKRNTLNKPVIMGRHTWESIGRPLPGRKNIILSSQPGTDDRVTWVKSVDEAIAACGDVPEIMVIGGGRVIEQFLPKAQKLYLTHIDAEVEGDTHFPDYEPDDWESVFSEFHDADAQNSHSYCFEILERR | modest stabilization of Renilla luciferase in the presence of their corresponding ligand |  |  |  |  |  |  |  |  |  |  |  |  |  |  |  | 
OT-DHFRC-029: combination mutant hDHFR (I17V, Y122I) (protein, UniProt P00374 1-187, looked up, variant I17V Y122I) Dihydrofolate reductase: MVGSLNCIVAVSQNMGVGKNGDLPWPPLRNEFRYFQRMTTTSSVEGKQNLVIMGKKTWFSIPEKNRPLKGRINLVLSRELKEPPQGAHFLSRSLDDALKLTEQPELANKVDMVWIVGGSSVIKEAMNHPGHLKLFVTRIMQDFESDTFFPEIDLEKYKLLPEYPGVLSDVQEEKGIKYKFEVYEKND |  | 3041 | 52.17 | 158659 | 37.93 | 115339 | 21.76 | 66170 | 7.71 | 23454 | 2.29 | 6966 | 1.43 | 4355 | 1.13 | 3439 | 
OT-hDHFRC-030: combination mutant hDHFR (Y122I, M140I) (protein, UniProt P00374 1-187, looked up, variant Y122I M140I) Dihydrofolate reductase: MVGSLNCIVAVSQNMGIGKNGDLPWPPLRNEFRYFQRMTTTSSVEGKQNLVIMGKKTWFSIPEKNRPLKGRINLVLSRELKEPPQGAHFLSRSLDDALKLTEQPELANKVDMVWIVGGSSVIKEAMNHPGHLKLFVTRIIQDFESDTFFPEIDLEKYKLLPEYPGVLSDVQEEKGIKYKFEVYEKND |  | 2539 | 26.28 | 66732 | 8.23 | 20890 | 2.62 | 6641 | 1.38 | 3494 | 1.09 | 2766 | 1.03 | 2618 | 1.04 | 2643 | 
OT-hDHFRC-032: combination mutant hDHFR (Y122I, H131R, E144G) (protein, UniProt P00374 1-187, looked up, variant Y122I H131R E144G) Dihydrofolate reductase: MVGSLNCIVAVSQNMGIGKNGDLPWPPLRNEFRYFQRMTTTSSVEGKQNLVIMGKKTWFSIPEKNRPLKGRINLVLSRELKEPPQGAHFLSRSLDDALKLTEQPELANKVDMVWIVGGSSVIKEAMNHPGRLKLFVTRIMQDFGSDTFFPEIDLEKYKLLPEYPGVLSDVQEEKGIKYKFEVYEKND |  | 2627 | 18.99 | 49891 | 4.66 | 12247 | 1.94 | 5092 | 1.24 | 3246 | 1.08 | 2826 | 1.03 | 2694 | 1.03 | 2704 | 
OT-hDHFRC-031: combination mutant hDHFR (N127Y, Y122I) (protein, UniProt P00374 1-187, looked up, variant N127Y Y122I) Dihydrofolate reductase: MVGSLNCIVAVSQNMGIGKNGDLPWPPLRNEFRYFQRMTTTSSVEGKQNLVIMGKKTWFSIPEKNRPLKGRINLVLSRELKEPPQGAHFLSRSLDDALKLTEQPELANKVDMVWIVGGSSVIKEAMYHPGHLKLFVTRIMQDFESDTFFPEIDLEKYKLLPEYPGVLSDVQEEKGIKYKFEVYEKND |  | 2565 | 56.59 | 145144 | 38.52 | 98805 | 20.77 | 53282 | 6.14 | 15743 | 2.17 | 5576 | 1.30 | 3345 | 1.14 | 2922 | 
OT-RLuc-004: DD regulated Renilla luciferase (protein) MISLIAALAVDYVIGMENAMPWNLPADLAWFKRNTLNKPVIMGRHTWESIGRPLPGRKNIILSSQPGTDDRVTWVKSVDEAIAACGDVPEIMVIGGGRVIEQFLPKAQKLYLTHIDAEVEGDTHFPDYEPDDWESVFSEFHDADAQNSHSYCFEILERRSGTSKVYDPEQRKRMITGPQWWARCKQMNVLDSFINYYDSEKHAENAVIFLHGNAASSYLWRHVVPHIEPVARCIIPDLIGMGKSGKSGNGSYRLLDHYKYLTAWFELLNLPKKIIFVGHDWGACLAFHYSYEHQDKIKAIVHAESVVDVIESWDEWPDIEEDIALIKSEEGEKMVLENNFFVETMLPSKIMRKLEPEEFAAYLEPFKEKGEVRRPTLSWPREIPLVKGGKPDVVQIVRNYNAYLRASDDLPKMFIESDPGFFSNAIVEGAKKFPNTEFVKVKGLHFSQEDAPDEMGKYIKSFVERVLKNEQ | modest stabilization of Renilla luciferase in the presence of their corresponding ligand |  |  |  |  |  |  |  |  |  |  |  |  |  |  |  | 
OT-RLuc-001: constitutive Renilla luciferase construct (protein, listed as Renilla reniformis) MTSKVYDPEQRKRMITGPQWWARCKQMNVLDSFINYYDSEKHAENAVIFLHGNAASSYLWRHVVPHIEPVARCIIPDLIGMGKSGKSGNGSYRLLDHYKYLTAWFELLNLPKKIIFVGHDWGACLAFHYSYEHQDKIKAIVHAESVVDVIESWDEWPDIEEDIALIKSEEGEKMVLENNFFVETMLPSKIMRKLEPEEFAAYLEPFKEKGEVRRPTLSWPREIPLVKGGKPDVVQIVRNYNAYLRASDDLPKMFIESDPGFFSNAIVEGAKKFPNTEFVKVKGLHFSQEDAPDEMGKYIKSFVERVLKNEQ | expression of Renilla luciferase both in the presence and absence of ligand |  |  |  |  |  |  |  |  |  |  |  |  |  |  |  | high luciferase activity both in the presence and absence of ligand
OT-RLuc-005: DD regulated Renilla luciferase (protein) MTSKVYDPEQRKRMITGPQWWARCKQMNVLDSFINYYDSEKHAENAVIFLHGNAASSYLWRHVVPHIEPVARCIIPDLIGMGKSGKSGNGSYRLLDHYKYLTAWFELLNLPKKIIFVGHDWGACLAFHYSYEHQDKIKAIVHAESVVDVIESWDEWPDIEEDIALIKSEEGEKMVLENNFFVETMLPSKIMRKLEPEEFAAYLEPFKEKGEVRRPTLSWPREIPLVKGGKPDVVQIVRNYNAYLRASDDLPKMFIESDPGFFSNAIVEGAKKFPNTEFVKVKGLHFSQEDAPDEMGKYIKSFVERVLKNEQSGGVQVETISPGDGRTFPKRGQTCVVHYTGMLGDGKKVDSSRDRNKPFKFMLGKQEVIRGWEEGVAQMSVGQGAKLTISPDYAYGATGHPGIIPPHATLVFDVELLELE | modest stabilization of Renilla luciferase in the presence of their corresponding ligand |  |  |  |  |  |  |  |  |  |  |  |  |  |  |  | 
